Measured values reported in the nanobody polyreactivity screen of Harvey et al. (2022).

Assay: yeast display, Sf9 membrane polyspecificity reagent, FACS + sequencing; frameworks hold sequencing errors
Summary of the method: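 Galactose-induced (36–48 hours) yeast carrying a synthetic nanobody display library were exposed to 10% biotinylated, detergent-solubilized Sf9 membrane reagent at 4 °C for 1 hour. FACS followed streptavidin microbead enrichment, using low and high (top ~1%) gates for expression (anti-HA) and reagent binding (streptavidin). Colony PCR, MiSeq 2 × 250 sequencing and CDR-length filtering followed. Labels for polyreactivity reflect the gate of origin.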

Row | Sequence | polyreactivity (PSR sort gate)
1 | QVQLVESGGGLVQAGGTLRLSCAASGIIFNYYAMGWYRHAPGKERELVAAITRGGRTNYADSVKGRFTISRDNAKNTVYLQMNSLKPEDTAVYYCNAPAFYKYKSFYAHSGYDYWGQGTQVTVSS | high polyreactivity
2 | QVQLVESGGGLVQAGGTLRLSCAASGITFYLNAMGWYRQAPGKERELVADITVSGGSTYYAVSVKGRFTISRDNVKNTVYLQMNSLKPEDTAVYYCAAKYSSGRVLFEHGYWGQGTQVTVSS | low polyreactivity
3 | QVQLVESGGGLVQAGGTLRLSCAASGRIFGYNAMGWYRQAPGKERELVAVISTSGTIRYYADSVKGRFTISRVNAKNTVYLQMKSLKPEDTAVYYCAARYYQRANGFGYWGQGTQVTVSS | low polyreactivity
4 | QVQLVESGGGLVQAGGTLRLSCAASGRIFTRYAMGWYRQAPGKERELVAAISYGGGVTYYADSVKGRFTISRDNAKNTVYLQMNSLKPEDTAVYYCATDDPLSQINEKGMDYWGQGTQVTVSS | low polyreactivity
5 | QVQLVESGGGLVQAGGTLRLSCAASGRILPRNAMGWSRQAPGKERELVAGISSDGSTNYADSVKGRFTISRDNAKNSVYLQMNILKPEDTAVYYCAADGVYDPYVYGYWGQGTQVTVSS | low polyreactivity
6 | QVQLVESGGGLVQAGGTLRLSCAASGRTFDTNAMAWYRQAPGKERELVASITWVGGSTYYADSVKGRFTISRDNAKNTVYLQMNSLKPEDTAVYYCNRDRVSGGKYNYWGQGSQVTVSS | low polyreactivity
7 | QVQLVESGGGLVQAGGTLRLSCAASGRTFGFYAMGWYRQAPGKERELVAVITRGGYTSYADSVKGRFTISRDNAKNTVYLQMNSLKPEDTAVYYCAAGWHYWDHRYDYWGQGTQVTVSS | high polyreactivity
8 | QVQLVESGGGLVQAGGTLRLSCAASGRTFLWNDMGWDRQAPGQERELVAAITGSDGTYADSVKGRFTISRDNAKNTVYLQMNSLKPEDNAVYYCAAETYWFFPWKYDYWGQGTQVTVSS | low polyreactivity
9 | QVQLVESGGGLVQAGGTLRLSCAASGRTLHGYAMGWYRQAPGKERELVASITWSGASTYYADSVKGRFTISRDNAKNTVYLQMNSLKPEDTAVYYCAADRSRYVRRRYGYWGQGTQVTVSS | high polyreactivity
10 | QVQLVESGGGLVQAGGTLRLSCAASGSIFAGYAMGWYRQAPGKVRELVATITSGGSTNYADSVKGRFTISRDNAKNTVYLQMNSLKPEETAVYYCAADVEDSIATSYTCGEYVYWGQGTQVTVSS | low polyreactivity
11 | QVQLVESGGGLVQAGGTLRLSCAASGSIFAVNAMGWYRQAPGKERELVAAISKRGGSTYYADSVKGRFTISRDNAKNTVYLQMNSLKPEDTAVYYCAARILVTYHRDYYYWGLGTQVTVSS | high polyreactivity
12 | QVQLVESGGGLVQAGGTLRLSCAASGSIFGNNLMGWYRQAPGKERELVAAISWSGGKNYADSVKGRFTISRDNAKNTVYLEMHCLIPDDSAVYYCAALSVWSYYTYYYWGQGTQVTVSS | high polyreactivity
13 | QVQLVESGGGLVQAGGTLRLSCAASGSTFGGYAMGLYRQAPGKERELVAAITWSGDTYYADSVKGRFTISRDNAKNSVYLQMNSLKPEDTAVYYCAAYSRVGPYRYAYWGQGTQVTVSS | high polyreactivity
14 | QVQLVESGGGLVQAGGTLRLSCAASGSTFKYYAMGWYRQAPGKEREFVASINWSGVSTYYADSVKGRFTISRDNAKNTVYLQMNSLKPEDTAVYYCAARVRGKYDYWGQGTQVTVSS | high polyreactivity
15 | QVQLVESGGGLVQAGGTLRLSCAASGSTFTGNAMGWYRQAPGKERELVAAITIGGSRTYYADSVKGRFTISRDNAKNTVYLQMNSLKPEDTAVYYCAATSRGTDYWGQGTQVTVSS | high polyreactivity
16 | QVQLVESGGGLVQAGGTLRLSCAASGSTFYLYAMGWYRQAPGNERELVAAISSAGGSTYYADSVKGRFTISRVNAKNTVYLQMNSLKPEDTAVYYCTRDIRRRGNYWGQGTQVTVSS | high polyreactivity
17 | QVQLVESGGGLVQAGGTLRLSCAASGYTFGVYFMGWYRHAPGKERELVAAISGSTYYADSVKGRFTISRDNAKNTVYLQMNSLKQEDTAVYYCAAESYFFSPRTREKFDYWGQGTQVTVSS | low polyreactivity
18 | QVQLVESGGGLVQAGGTLRLSCAATGFTFYEYAMGWYRQAPGKERELVAGIRRSGDSTYYADSVKGRFTISRDNAKNTVYLQMNILKPEDTAVYYCAKGWYRIKRNDYWGQGTQVTVSS | low polyreactivity
19 | QVQLVESGGGLVQAGGTLRLSSAASGSIFYRNAMGWYRQAPGKERELVDSITSGGLTNYADSVKGRFTISRDNAKNTVYLHMFSLKPEETAVYYCARGRASYTKSGPTPYTGYGYWGQGTQVTVSS | low polyreactivity
20 | QVQLVESGGGLVQAGRSHRLSCAASGFTFAPNAMGWYRQAPGKERELVARIDRAGSTYYADSVKGRFTISRDNAKNTVYLQMNSLKPEVTAVYYCAVVAVLSRPYATKFDYWGQGTQVTVSS | low polyreactivity
21 | QVQLVESGGGLVQAGRSHRLSCAASGSIFPVYVMGWYRQAPGKERELVAAISQSSGGTYYADSVKGRFTISRDNATITVYLQMNSLKPEDTAVYYCAARITAIQGQRYYWGQGTQVTVSS | high polyreactivity
22 | QVQLVESGGGLVQAGRSLRLICAASGLILFYNAMGWYRQPPGKERELVAVITSGGRTYYADSVKGRFTISRDNAKNTVYLQMNSLKPEDTAVYFCAATYGHPTSYGDGWRYGYWGQGTQVTVSS | low polyreactivity

Row | Sequence | polyreactivity (PSR sort gate)
23 | QVQLVESGGGLVQAGRSLRLSCAASGFTFETYAMGWYRQAPGKERELVAAISDGGGDTYYADSVKGRFTISRDNAKNTVYLLMNSLKPEDSAVYYCAAEWDGNWSRGAGGYDYWGQGTQVTVSS | low polyreactivity
24 | QVQLVESGGGLVQAGRSLRLSCAASGFTFRGYAMGWYRQAPGKERELVAAISVRGDSTYYADSVKGRFTISRDNAKNTVYLQMNSLKPEDTAVYYCNAALLGKQYYSNPNYDYWGQGTQVTVSS | high polyreactivity
25 | QVQLVESGGGLVQAGRSLRLSCAASGITFKLYAMGWYRQAPGKERELVARLSLRGGNTYYADSVKVRFTISRDNAKTTVYLQMNSQNPEDTAVYYCNADLYRQYASRYHYWGQGSQVTVSS | high polyreactivity
26 | QVQLVESGGGLVQAGRSLRLSCAASGITLYNYAMGWYRQAPGKERELVAAISLSGGRTYYADSVKGRFTISRDNAKNTVYLQMYSLKPEDTAVYYCAADWLNSDPYNYWGQGTQVTVSS | low polyreactivity
27 | QVQLVESGGGLVQAGRSLRLSCAASGNTLRPNGMGWYRPAPGKERELVAAISSGGSTYYADSVKGRFTISRDNAKNTVYLQMNSLKPEDTAVYYCAAEYWYDYWGQGTQVTVSS | low polyreactivity
28 | QVQLVESGGGLVQAGRSLRLSCAASGRIFISYTMGWYRPAPGKERELVAGIDSSGTSTYYADSVKGRFTISRDYAKNTVYLQMNSLIPEDTAVYYCNVVGNWKDTSTELDYWGQGTQVTVSS | low polyreactivity
29 | QVQLVESGGGLVQAGRSLRLSCAASGRIFRYNTMGWYRQAPGKERELVARINRGGSTNYADSVKGRFTISRDNAKNTVYLQMNSLKAEDTAVYYCNARYTARHYPFSNFDYWGQGTQVTVSS | high polyreactivity
30 | QVQLVESGGGLVQAGRSLRLSCAASGRIFSTNAMGRYRQAPGKERELVAAITRSSSTYYAYSVKGRFTISLDNAKNTVYLQINSLKPEDTAGYYCAASRFQYKSTQFYYWGQATQVTVSS | high polyreactivity
31 | QVQLVESGGGLVQAGRSLRLSCAASGSIFSTNAMGWYTQAQGKEREFVAAIDITNYEDSVKGRFTISRDNSKNTVDFQMNSVIPEDTAVYSCIADTYSVVREGDYWGQGTQVTVSS | low polyreactivity
32 | QVQLVESGGGLVQAGRSLRLSCAASGSIISVYAMGLYRQAPGKERELVADITGTGDTYYADSVKGRFTISRDNAKNTVYLQMNSLIPEDTAVYYCNTVYELYYDPSVTEDYWGQGTQVTVSS | low polyreactivity
33 | QVQLVESGGGLVQAGRSLRLSCAASGSILSINGMGWYRQAPGKERELVATIDGSEGSTFYADSVKGRFTISRDNAKNTFYLQLNSVKPEDTAVYYCAAENFWQTKEYDYWGQGKQVTVSS | low polyreactivity
34 | QVQLVESGGGLVQAGRSLRLSCAASGSTFDGYAMGWYRQAPGKERELVAAISYSGSSTYYADSVKGRFTNSRDNAKNTVYLQMNSLKPEDTAVYYCAVDDTHPFGPDGGGDYWGQGTQVTVSS | low polyreactivity
35 | QVQLVESGGGLVQAGRSLRLSCAASGSTFHPYAMGWYRQAPGKERELVAAINSGDNTYYADSVKGRFTISRDNAKNTVYLQMNSLKPEDTAVYYCAVRYWDESHTEYDYWGQGTQVTVSS | low polyreactivity
36 | QVQLVESGGGLVQAGRSLRLSCAASGSTFKYNAMGWYRQAPGKERELVASISRSGGSTYYADSVKGRFTISRDNAKNTVYLQMNSLKPEDTAGYYCNVRRFVHYEYWGQGSQVTVSS | high polyreactivity
37 | QVQLVESGGGLVQAGRSLRLSCAASGSTFSHYAMGWYRQAPGKERELFATITGTGVRTYYADSVKGRFTISRDNAKNTVYLQMNSLKPEATAVYFCAVPPSIRGAQAQPWMDYWGQGTQVTVSS | low polyreactivity
38 | QVQLVESGGGLVQAGRSLRLSCAASRSIFARYAMAWYRQAPGKERELVAAINSTVSTNYADSVKGRFTISRENAKNTVYLQMNSLKPEDTAVSYCAVDMVRGGLDSWGQGTQVTVSS | low polyreactivity
39 | QVQLVESGGGLVQAGRSLRLSCAASVFTFYHYAMGWYRQAPGKVRELVAAISNSGVSTYYADSVKGRFTISRDNAKITVYLQLNSLKPEDTAVYYCNAVYQSYHISGDDYWGQGTQVTVSS | high polyreactivity
40 | QVQLVESGGGLVQAGRSLRLSCASSGRIFSSYAKGWYRQAPGKERELVAAITSGGSTDYADSVKGRFTISRDNAKNTVYLQIYRLNPEDTAVYYCAKAFLPPWTYSPYYLFYYWGQGTQVTVSS | low polyreactivity
41 | QVQLVESGGGLVQAGRSLRLSCGASGFTFGLYAMGWYRQATGKERELVAAITSSGRRTYYADSVKGRYTISRDKAKNTVSLEMNCLKPEDTAVYYFAKQAYDQSPYNYWGQGTQVTVSS | high polyreactivity
42 | QVQLVESGGGLVQAGRSLRLTCAASGRIFTPYAMGWYRQAPGTERELVATITLSGGSTYYADSVKGRFTISRDYAKNTVYLQMNSLKPEDTAVYYCNKDTHLHVVDYRTGYDCWGQGTQVTVSS | low polyreactivity
43 | QVQLVESGGGLVQAGRSLRLTCAASGRTFRAYTMGWYRQAPGKERDLVAAITSSGGGTYYADSVKGRFTISRDNAKNTVYLQMNSLKPEDTAVYYCNDRKQSYPDKYRRDYWGQGTQVTVSS | low polyreactivity
